T1: C-C motif chemokine 14 (CCL14), human (human, UniProt Q16627 20-93)
T1 construct: Residues 20-93 are the mature CCL14 it describes, with signal peptide 1-19; also called HCC-1; NCC-2
T1 sequence: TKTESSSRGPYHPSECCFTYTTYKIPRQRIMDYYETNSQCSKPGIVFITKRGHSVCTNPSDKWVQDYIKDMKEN

B1: 10H3/10K1 (antibody, V domains shown)
VH: QSVKESEGGLFKPADTLTLTCTVSGFSLSSYAINWVRQAPGEGLEYIGWISDVGTAYYASWAKSRSTITRNTDENTVTLKMTSLTAADTATYFCAGGDGSYSNYWVSDIWGQGTLVTVSS
VL: AVVLTQTPSLVSAPVGGTVTVKCRASQTINSRLAWYQQKQGQPPKLLIYEASKLASGVPSRFKGSGSGTEYTLTIRGVECADAATYSCQEYADENIFGGGTEVVVK
notes: Rabbit monoclonal IgG expressed in HEK cells; also called 10H3 heavy chain / 10K1 light chain
B2: 25H2/25K1 (antibody, V domains shown)
VH: QSLEESGGDLVKPGASLTLTCTASRFDFSSAYYMCWVRQAPGKGLEWIACIYAGSSGGTYYATWAKGRFTISKTSSTTVTLQLTSLTAADTATYFCAGSTGNSRGSYFNLWGQGTLVTVSS
V domain: AQVLTQTPSPVSAAVGGTVTINCQSSQSVYDNNWLAWYQQKLGQPPKLVIYDASKLASGVPSRFKGSGSGTHFTLTISELQCDDSATYYCQGEYSDIWGFGGGTEVVVK
notes: Rabbit monoclonal IgG expressed in HEK cells; also called 25H2 heavy chain / 25K1 light chain
B3: 3H1/3K1 (antibody, V domains shown)
VH: QSVRESEGGLFKPADTLTLTCTVSGFSLSSDAISWVRQAPGNGLEWIGAIDFGGSAYYASWAKSRSTITRNTNENTVTLKMTSLTAADTATYFCARSPSFGIVDRLDLWGQGTLVTVSS
VL: AVVLTQTASPVSAPVGGTVTIKCQASEDIDSYLAWYQQKPGQPPKLLIYDVFDLSSGVPSRFKGSGSGTEFTLTISDLECADAATYYCQSYYYVLGTTSTDHNSFGGGTEVVVK
notes: Rabbit monoclonal IgG expressed in HEK cells; also called 3H1 heavy chain / 3K1 light chain
B4: 12H2/12K1 (antibody, V domains shown)
VH: QSVRESEGGLFKPADTLTLTCTVSGFSLSSDAISWVRQAPGNGLEWIGAIDFGGSAYYASWAKSRSTITRNTNENTVTLKMTSLTAADTATYFCARSPSFGIVDRLDLWGQGTLVTVSS
VL: AVVLTQTASPVSAPVGGTVTIKCQASEDIDSYLAWYQQKPGQPPKLLIYDVFDLSSGVPSRFKGSGSGTEFTLTISDLECADAATYYCQSYYYVLGTTSTDHNSFGGGTEVVVK
notes: Rabbit monoclonal IgG expressed in HEK cells; also called 12H2 heavy chain / 12K1 light chain
B5: 31H1/31K1 (antibody, V domains shown)
VH: QSVRESEGGLFKPADTLTLTCTVSGFSLSSDAISWVRQAPGNGLEWIGAIDFGGSAYYASWAKSRSTITRNTNENTVTLKMTSLTAADTATYFCARSPSFGIVDRLDLWGQGTLVTVSS
VL: AVVLTQTASPVSAPVGGTVTIKCQASEDIDSYLAWYQQKPGQPPKLLIYDVFDLSSGVPSRFKGSGSGTEFTLTISDLECADAATYYCQSYYYVLGTTSTDHNSFGGGTEVVVK
notes: Rabbit monoclonal IgG expressed in HEK cells; also called 31H1 heavy chain / 31K1 light chain
B6: 2H3/2K1 (antibody, V domains shown)
VH: QEQLKESGGGLVQPGGSLKLSCKASGFAFSSDYMSWVRQAPGKGLEWIGYIDPIFGSTAYASWVNGRFTISSHNAQNTLYLHLNSLTAADTATYFCARDKDYSSGWGGYFNLWGQGTLVTVSS
VL: AIVMTQTPASVEAAVGGTVTIKCQASQSINSYLAWYQQKPGQPPRLLIYEASTLASGVPSRFKGSGSGTQFTLTISDLECADAATYYCQTYYYSVDSSVGSNAFGGGTEVVVK
notes: Rabbit monoclonal IgG expressed in HEK cells; also called 2H3 heavy chain / 2K1 light chain
B7: 17H2/17K1 (antibody, V domains shown)
VH: QSVKESEGGLFKPADTLTLTCTVSGFSLSSYAINWVRQAPGEGLEYIGWISDVGTAYYASWAKSRSTITRNTDENTVTLKMTSLTAADTATYFCAGGDGSYSNYWVSDIWGQGTLVTVSS
VL: AVVLTQTASPVSAPVGGTVTVKCQASQTINSRLAWYQQKQGQPPKLLIYEASTLASGVPSRFKGSGSGTEYTLTIRGVECADAATYSCQEYADENIFGGGTEVVVK
notes: Rabbit monoclonal IgG expressed in HEK cells; Used as a labelled conjugate; also called 17H2 heavy chain / 17K1 light chain
B8: 18H1/18K1 (antibody, V domains shown)
VH: QSVKESEGGLFKPADTLTLTCTVSGFSLSSYAINWVRQAPGEGLEYIGWISDVGTAYYASWAKSRSTITRNTDENTVTLKMTSLTAADTATYFCAGGDGSYSNYWVSDIWGQGTLVTVSS
VL: AVVLTQTASPVSAPVGGTVTVKCQASQTINSRLAWYQQKQGQPPKLLIYEASTLASGVPSRFKGSGSGTEYTLTIRGVECADAATYSCQEYADENIFGGGTEVVVK
notes: Rabbit monoclonal IgG expressed in HEK cells; also called 18H1 heavy chain / 18K1 light chain
B9: 19H2/19K3 (antibody, V domains shown)
VH: QSVKESEGGLFKPADTLTLTCTVSGFSLSSFAINWVRQAPGEGLEYIGWISDVGTAYYASWAKSRSTITRNADENTVTLKMTSLTAADTATYFCAGGDGSYSNYWVSDIWGQGTLVTVSS
VL: AVVLTQTASPVSAPVGGTVTVKCQASQTINNRLAWYQQKQGQPPKLLIYEASKLASGVPSRFKGSGSGTEYTLTIRGVECADAATYSCQEYADENIFGGGTEVVVK
notes: Rabbit monoclonal IgG expressed in HEK cells; also called 19H2 heavy chain / 19K3 light chain
B10: 4H1/4K3 (antibody, V domains shown)
VH: QSVKESEGGLFKPADTLTLTCTVSGFSLSSFAINWVRQAPGEGLEYIGWISDVGTAYYASWAKSRSTITRNTDENTATLKMTSLTAADTATYFCAGGDGSYSNYWVSDIWGQGTLVTVSS
VL: AVVLTQTASPVSAPVGGTVTVKCQASQTINNRLAWYQQKQGQPPKLLIYEASKLASGVPSRFKGSGSGTEYTLTIRGVECADAATYSCQEYADENIFGGGTEVVVK
notes: Rabbit monoclonal IgG expressed in HEK cells; Used as a labelled conjugate; also called 4H1 heavy chain / 4K3 light chain

These binders were tested against T1, C-C motif chemokine 14 (CCL14), human (assay: binding to arrays of CCL14-derived peptides (epitope mapping)).
Procedure: Antibodies were diluted in buffer and applied to the peptide library array. Each antibody tested was optimized for the array by testing different blocking conditions and sample concentration. […] Epitope mapping was precluded in the case of antibodies showing high binding signals throughout the array.

Binding result, binds:
B1
B2

The binders below were run against T1, C-C motif chemokine 14 (CCL14), human (assay: lateral flow sandwich, CCL14 5 ng/mL; strip antibody, with 4H1/4K3 conjugate).
Procedure: (§1) Various antibodies of the invention were tested for their ability to form sandwich complexes in a lateral flow format. Urine was used as a sample matrix for CCL14 antigen standards. One member of the antibody pair (the “strip” antibody) was immobilized onto a nitrocellulose membrane, and the other member of the antibody pair was prepared as a labeled conjugate with a label that is detectable by the ASTUTE 140® meter system for reading to the test strip.
(§2) To further understand the ability of the antibodies of the present invention to pair, a matrix of various antibodies was analyzed at a single CCL14 concentration of 5 ng/mL in a 100 μL sample volume. The solid phase “strip” antibody was applied to nitrocellulose in 3 μL of a 0.25 μg/mL solution. The conjugate was mixed with the sample volume to a concentration of 10 μg/mL.

Binding result, binds:
B3
B4
B5
B6

What follows are binders tested against T1, C-C motif chemokine 14 (CCL14), human (assay: lateral flow sandwich, CCL14 5 ng/mL; labelled conjugate, with 2H3/2K1 on the strip).
Procedure: as §1, §2

Binding result, binds:
B7
B8
B9
B10
